Test: Investigation of pH of bivalirudin solutions (degradation at pH 2-6)
Type: physicochemical
Settings: 1 mg/ml aqueous solution
Protocol: The degradation pathway of bivalirudin was investigated by preparing aqueous solutions at 1 mg/ml of bivalirudin at pH 2, 3, 4, 5 and 6 (Table 1). […] The excessive degradation observed was attributed to a change in pH during storage wherein the final pH of the bivalirudin compositions was about 7.

Substance: D-Phenylalanyl-L-Prolyl-L-Arginyl-L-Prolyl-Glycyl-Glycyl-Glycyl-Glycyl-L-Asparagyl-Glycyl-L-Aspartyl-L-Phenylalanyl-L-Glutamyl-L-Glutamyl-L-Isoleucyl-L-Prolyl-L-Glutamyl-L-Glutamyl-L-Tyrosyl-L-Leucine trifluoroacetate (salt) hydrate [bivalirudin]
- Asp^9-Bivalirudin (pH 2, 25° C./1 month): 2.58 % AUC
- Total Degradants (pH 2, 25° C./1 month): 64.8 % AUC
- Asp^9-Bivalirudin (pH 2, Initial): 0.45 % AUC
- Total Degradants (pH 2, Initial): 0.6 % AUC
- Asp^9-Bivalirudin (pH 3, 25° C./1 month): 2.71 % AUC
- Total Degradants (pH 3, 25° C./1 month): 37.7 % AUC
- Asp^9-Bivalirudin (pH 3, Initial): 0.76 % AUC
- Total Degradants (pH 3, Initial): 0.9 % AUC
- Asp^9-Bivalirudin (pH 4, 25° C./1 month): 1.26 % AUC
- Total Degradants (pH 4, 25° C./1 month): 51.1 % AUC
- Asp^9-Bivalirudin (pH 4, Initial): 0.59 % AUC
- Total Degradants (pH 4, Initial): 3.1 % AUC
- Asp^9-Bivalirudin / Total Degradants (pH 5, 25° C./1 month): complete degradation
- Asp^9-Bivalirudin (pH 5, Initial): 0.84 % AUC
- Total Degradants (pH 5, Initial): 3.4 % AUC
- Asp^9-Bivalirudin / Total Degradants (pH 6, 25° C./1 month): complete degradation
- Asp^9-Bivalirudin (pH 6, Initial): 1.19 % AUC
- Total Degradants (pH 6, Initial): 4.7 % AUC
